Experimental data reported in PMC7655094.
“And” between values parts separate entries of the source, which are not always exact repeats. Equal entries are not always repeated.

Target: CD16 expressed by Jurkat-CD16 cells (UniProt P08637)
Experiment: flow cytometry on cells

Chain of UniProt P08637 (P08637 17-254): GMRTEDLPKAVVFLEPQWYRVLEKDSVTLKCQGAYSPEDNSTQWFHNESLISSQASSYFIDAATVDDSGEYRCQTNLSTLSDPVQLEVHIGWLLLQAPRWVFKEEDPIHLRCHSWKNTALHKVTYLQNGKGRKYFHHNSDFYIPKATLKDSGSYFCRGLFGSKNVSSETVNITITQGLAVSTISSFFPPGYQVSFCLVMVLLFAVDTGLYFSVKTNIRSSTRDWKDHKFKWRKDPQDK

goat-produced cetuximab (gCetuximab) (antibody)
MFI of bound competitor anti-CD16-PE/3G8: 25.1 and 28.1 and 21.8
